Reference: PMC2196193

Target: MBP-III2 (rat) (UniProt P04937)
Experiment: ELISA

UniProt P04937, sequence (P04937 701-808): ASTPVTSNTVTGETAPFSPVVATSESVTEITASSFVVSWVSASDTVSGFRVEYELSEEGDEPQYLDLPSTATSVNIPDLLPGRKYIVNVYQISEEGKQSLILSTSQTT

Kd: 28 nM
Substance: rat plasma fibronectin (from UniProt P04937 25-2477) (natural protein)
